Results reported in PMC12658125, “Oligomerisation of Ku from Mycobacterium tuberculosis promotes DNA synapsis” (Nature Communications, 2025).
Positions count from the first letter of the chain named. Numbers in names are those of the source.

Key:
[1] = biological target: the molecule itself; assay: cryo-EM structure; apo Ku-Mtb without DNA; 20 mM Tris-HCl pH 8, 75 mM NaCl, 5 mM MgCl2, 2 mM DTT, 8 mM CHAPSO; C2 symmetry imposed; step: protomers to homodimer
[2] = biological target: the molecule itself; assay: cryo-EM micrographs and 2D class averages
[3] = biological target: T1, Ku-Mtb L13A/V14A (Mycobacterium tuberculosis, UniProt P9WKD9 1-273, L13A;V14A); assay: cryo-EM; settings: protein: recombinant; tags: His (Ni-NTA purified); chain copies: 2; label: 5' FAM on strand 1; 3' overhang 20 nt on strand 1
T1 sequence: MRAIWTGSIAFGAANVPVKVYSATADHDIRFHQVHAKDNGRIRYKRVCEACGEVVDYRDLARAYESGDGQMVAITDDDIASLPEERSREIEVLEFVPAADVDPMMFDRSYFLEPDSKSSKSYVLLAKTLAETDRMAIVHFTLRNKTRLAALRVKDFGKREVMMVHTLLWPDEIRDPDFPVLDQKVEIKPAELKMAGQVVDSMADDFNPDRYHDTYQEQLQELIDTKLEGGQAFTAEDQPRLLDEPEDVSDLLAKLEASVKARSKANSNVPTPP

B1: Ku protein from Mycobacterium tuberculosis, wild type (natural protein)
chain: T1 sequence with A13L, A14V
notes: also called Ku-Mtb; KuMtb
stoichiometry N [1]: 2

B2: Ku-Mtb S201A/Q197A double mutant (natural protein)
chain: T1 sequence with A13L, A14V, Q197A, S201A
notes: source: over-expressed, purified
binding result [2]: binds

B3: FAM-DNA, 32 bp with 3' 20dT overhang (mixed)
DNA 1: GGAATGTAACCATCGTTGGTCGGCAGCAGGGCTTTTTTTTTTTTTTTTTTTT
DNA 2: GCCCTGCTGCCGACCAACGATGGTTACATTCC
binding result [3]: binds
